From article PMC4110399 (Current Biology, 2014)

Columns and labels:
[1] = target: recombinant VPS35/VPS29 complex (wild type) (UniProt Q96QK1 1-796; Q9UBQ0 1-182); test: ITC; FAM21 R20-21 titrated into the VPS35/VPS29 complex; three experiments for each complex with two independently prepared protein samples; global fitting with SEDPHAT; details: both partners purified
[2] = target: recombinant VPS35(D620N)/VPS29 complex (UniProt Q96QK1 1-796; Q9UBQ0 1-182, D620N); test: as above; details: both partners purified

Row | Binder | Kd [1] | stoichiometry N [1] | Kd [2]
1 | FAM21 R20-21 fragment (domain or fragment, Limits not printed (construct is in cited ref 16); taken as the C-terminal tail spanning LFa motifs 20-21. The LFa 20/21 positions are recalled from the entry's annotation and not shown in the …) KSKKKVEAKSIFDDDMDDIFSTGIQAKTTKPKSRSAQAAPEPRFEHKVSNIFDDPLNAFGGQ | 2.4 µM | 2 R20-21 per VPS35/VPS29 (by the order of the sentence) | 
2 | FAM21 R20-21 fragment (domain or fragment) KSKKKVEAKSIFDDDMDDIFSTGIQAKTTKPKSRSAQAAPEPRFEHKVSNIFDDPLNAFGGQ |  |  | 4.6 µM
